The supplement of paper PMC12042874
± gives the uncertainty stated by the source.

Assay: amyloid nucleation score (Sup35N fusion, yeast selection) (log enrichment); library NNK3; higher = more nucleation; inactive = no reads after selection
In short: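 Peptides of 20 random codons, each fused to Sup35N, were expressed in psi-negative yeast. Cells were induced with 100 μM copper sulfate for 24 hours and grown 7 days at 30°C on medium lacking adenine and uracil, and plasmid inserts before and after selection were Illumina-sequenced. Nucleation scores are DiMSum log enrichments of output over input reads, centred on the mode score of non-aggregating sequences, and sequences under 100 input reads were excluded.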

Substance	amyloid nucleation score
FLVCHDYAYETVG	inactive
SNTFTPKGNPLWSSVCVFHQ	inactive
TSHNGPYLSMFFRVANT	inactive
FVLVGL	inactive
VSLLRGVLGLVV	inactive
LSLISVSLG	inactive
LACLIHS	inactive
SDWIRNG	inactive
RSLVCRFLTGTDMVCGIGVT	inactive
RQVVRSTLRLSWSIFLYSYM	inactive
SLVTFMLLMIKGMSGYFRTV	inactive
FERISRSFAYIDIRHIICMF	1.56 ± 0.11
IILFKCWCKWEASGSATIVD	inactive
CIRGVQNTGCGAQACYPVCR	inactive
WHCVSFKLNDL	inactive
TNAFRLVLTNMKI	inactive
GHSHCMNSVLHSNMSLNTVI	inactive
RVLDNTSSCRERNVGGDSFA	inactive
ESFWVML	inactive
GLVSGGVFMMADMSRILKGK	inactive
SGLRSTFDNTYTLYY	inactive
MLAHGFCQVSEWSRALFLRV	-0.244 ± 1.5
FLGSYSLTDRIRWVTFPLFQ	inactive
TCKVMSSGYYVLYLDVRV	inactive

Substance	amyloid nucleation score
TLWLRVLSFWTVCFLVHFTM	inactive
VWSVASYPSGPGKFCGGMTE	inactive
AGFRKTMWCIQPVSFLLLKF	1.74 ± 0.1
YGFRMRRLVARLESRQWFWG	inactive
YNCFDDNTYPYSANGSRNSL	inactive
YICNY	inactive
DTVMRSVLEAIVYINKIFVR	inactive
ILIDSGSTLFSIIFQGLLLI	inactive
WLSRPLCIIGWASRSMRGSH	inactive
CDIRFIYESYVSDNDGVLLH	inactive
TCIQYSKFLRA	inactive
YGVLS	inactive
EKFRWQSISIEVECSMAVQH	inactive
LCLFLSQMFSNRYEIFPLFV	inactive
WRFFDVDNNMSTHVLKQLRC	inactive
SVGVGNIHTR	inactive
SGNTNDSSMHHQNLFFSA	inactive
VSVRVDLILKVVRRSSVWFT	inactive
INWGWLPCTRTSTIGSRGRS	inactive
RSHQKEMCVNFNLPVNFSHR	inactive
RFRNYGLSGR	-0.38 ± 0.89
NFSETSAKYHVTSRGFSSSR	0.456 ± 0.21
FVIFW	inactive
FQRFYYLCWPSIWNMFQGGG	inactive

Substance	amyloid nucleation score
GPSPDPNRLP	-0.754 ± 1.3
YFDCNFVW	0.997 ± 0.14
IFIYGPLPPVRCYHYDWWNL	inactive
GSFAGCMGCLCYILVCSVYR	0.717 ± 0.12
AATYTTYHLESSNVYSFNFW	2.96 ± 0.048
LRRSVSIGDPGASLIKTSFA	inactive
RSCCLQPT	inactive
RSNTPPGISLARPFYPKNRV	inactive
KNFQPKTS	0.082 ± 0.45
FWTKFC	inactive
HRDYFFRPTFL	inactive
LGKSKFMAGQFLFCYSSVVL	1.58 ± 0.12
LSFHP	inactive
VSFRYAYYWFCRTMMTAAKR	inactive
SDVIGLLFGEYNISVVLRGR	inactive
CMGACLAGDTCKWIRQHLSG	inactive
WYPGMCFESVDTMDRHLHND	inactive
VYESFLLMLFYFRSDCKKKR	inactive
RTRKQRCHRCVWMLLGDYQR	inactive
VVSMQYCLFS	2.81 ± 0.072
LFDHYWLGSWIVENSYPSGE	inactive
SFDILTAVVT	inactive
RLYLESVYYFLSRAHRLSID	inactive
DVCGFYIHFRFTNKYQGVAS	inactive

Substance	amyloid nucleation score
CRSWVPMGGDLHRGWSLANK	inactive
LFFYNWVICRSNRYHGL	inactive
RSMNLRSKLMSACGGFMS	inactive
YRPGW	inactive
SKECILVLAFDGCSGSSRWY	inactive
MCPHKGIRSISLMIG	inactive
ATNLSYLNSAQVWLLT	inactive
TSIIYMFNSFL	2.9 ± 0.06
SNVLGWLRKLYS	inactive
RDVMWVNHVYCMLEFWTWVV	inactive
MLHLYQIIMRPYTLSGWWYY	inactive
AWCKGV	inactive
MSMYVTSF	inactive
NELCVTFLGCRPYVPA	-0.469 ± 1.1
YTPVIKCSYFTSIIGWAGPA	inactive
AFVRMLW	1.49 ± 0.13
DCMNGLVCFFMMCRGSLIRD	inactive
INNTAPPQTYPR	inactive
IQLICEAIAGFLYNVIFVVL	inactive
SMKSGSATCGIN	inactive
ILMRTGFILCATST	inactive
HNRLEAMFY	inactive
SLLSRFIEEGASCRCTRDGS	inactive
INRVHLYRLLKW	inactive

Substance	amyloid nucleation score
PWDQDGGSTYSKGGPSNWEF	inactive
LSMSAVL	inactive
FVASDLLFGVRDQSVFSLSQ	inactive
VNIAETFSRHDPSHLWSYKS	inactive
DRKLLYY	inactive
VSMFMNRNQKSIKNRVRHYM	inactive
MSLNNGGSGSCVCPFR	inactive
NSFDCVRDWLPLIF	inactive
VLARLQLHFCSMTSDRYGLM	1.04 ± 0.11
VWQWKGRCHVTNRYWYFCSS	inactive
FGYVQVTKDPSFMCNYGMQS	inactive
GKISTRFRFFSVDETRPTIN	1.18 ± 0.15
IRSDG	inactive
SLNRWLSKYYLHTA	inactive
FCLRLTYVRS	0.757 ± 0.22
LHMEG	-0.611 ± 1.1
TIHHRCCSKWKSAWRAYWSI	inactive
NLINTVKYLNFDGLTAFSSQ	inactive
CWVRIVAICMGFW	inactive
CCFPVVRKPFG	inactive
YNDNSNCSARMGLI	inactive
VLVAHMRGEPGVANEWPLFQ	inactive
WCFHDGLRAYVNFCRVYATN	inactive
TVCYYWRN	0.911 ± 0.2
